Legend:
[1] = molecular target: T1, SsoSSB (S. solfataricus SSB, SSO2364) (Sulfolobus solfataricus, UniProt Q97W73 SEQ:1-148); test: competition; conditions: linear pUC19 at 100-fold molar (nucleotide) excess did not alter shift of 63-mer; 75 C
T1 sequence: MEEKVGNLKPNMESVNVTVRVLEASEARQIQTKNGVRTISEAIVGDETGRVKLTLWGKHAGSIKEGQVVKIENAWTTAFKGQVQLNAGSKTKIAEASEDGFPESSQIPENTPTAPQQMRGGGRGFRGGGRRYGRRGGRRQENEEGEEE

[2] = molecular target: T1, SsoSSB (S. solfataricus SSB, SSO2364); test: EMSA; 10 uM nucleotides, constant mobility reached at 2 uM protein; saturation about 1 SSB per 5 nt; non-cooperative; 75 C, 30 mM Tris OAc pH 7.5, 10 mM MgOAc2, 5 mM; conditions: tags: untagged, expressed from pET21a in E. coli, heat treated at 80 C; chain copies: 4 (tetramer main form in solution; dimer and monomer also present); label: 5'-32P (T4 polynucleotide kinase end label)
Experimental: To determine the occluded binding site size of the protein and to evaluate the activity of the SsoSSB protein, we performed acrylamide gel mobility-shift assays with a radioactively labeled single-stranded oligonucleotide that was 63 nucleotides in length (FIG. 5). When a fixed quantity of radiolabeled oligonucleotide was incubated with increasing quantities of protein, a band of reduced mobility was observed. The apparent mobility further decreased upon addition of more protein, finally achieving a constant mobility after the addition of 2 μM protein. The absence of discrete species implied rapid equilibration between bound and free forms of the complexes, and consistent with this possibility, more discrete species were visualized when electrophoresis was performed more rapidly (at high voltage). […] The M. jannaschii RPA protein has a site size of 15 to 20 nucleotides (Kelly, T. J. et al., Proc Natl Acad Sci USA 95:14634-14639 (1998)) whereas the site size of E. coli SSB protein, depending on solution conditions, varies from 8 to 16 nucleotides per monomer. The apparent site size of SsoSSB protein is similar to the 7 nucleotide site size observed for phage T4 SSB protein, gp32. […] The observed band-retardation pattern is likely the result of a combination of this non-cooperative binding and rapid equilibration of protein-DNA complexes during electrophoresis.

Molecule | fold lower affinity than ssDNA (competition) (fold lower affinity than ssDNA) [1] | binding result [2]
linearized pUC19 | > 100 | 
63-mer oligonucleotide (ssDNA) DNA: ACAGCACCAATGAAATCTATTAAGCTCCTCATCGTCCGCAAAAATATCGTCACCTCAAAAGGA |  | binds
